In the supplement of paper PMC5998384:

Experiments:
HeLa Kyoto [1] = test: solubility in G1/S (NP-40 vs SDS abundance) (log2 ratio); higher = more soluble; details: cell cycle stage: G1/S
HeLa Kyoto [2] = test: thermal stability score vs G1/S (z-score of summed log2 fold changes over temperatures); higher = more thermally stable than in G1/S
HeLa Kyoto [3] = test: solubility change mitosis vs G1/S (difference of NP-40 vs SDS log2 ratios) (log2 ratio difference); higher = more soluble in mitosis
[4] = cell cycle stage: early G1 (4.5 h after nocodazole release)
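Wherever solubility change mitosis vs G1/S (difference of NP-40 vs SDS log2 ratios) is given: synchronized HeLa Kyoto cells (double thymidine block for G1/S, nocodazole release for mitosis), protein amounts in NP-40 versus SDS lysates quantified by mass spectrometry, three biological replicates.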
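Wherever solubility in G1/S (NP-40 vs SDS abundance) is given: HeLa Kyoto cells arrested at G1/S by double thymidine block, proteins quantified by TMT10plex mass spectrometry in mild NP-40 versus SDS extracts, three biological replicates.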
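Wherever thermal stability score vs G1/S (z-score of summed log2 fold changes over temperatures) is given: synchronized HeLa Kyoto cells, proteins quantified by TMT10plex mass spectrometry, three biological replicates, mitosis taken 0.5 h after nocodazole release, G1/S directly after double thymidine block.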

| Sequence | solubility in G1/S (log2) (HeLa Kyoto [1]) | thermal stability score (HeLa Kyoto [2]; [4]) | thermal stability score (HeLa Kyoto [2]; cell cycle stage: mitosis) | solubility change mitosis (log2) (HeLa Kyoto [3]) |
| --- | --- | --- | --- | --- |
| MGAVLGVFSLASWVPCLCSGASCLLCSCCPNSKNSTVTRLIYAFILLLSTVVSYIMQRKEMETYLKKIPGFCEGGFKIHEADINADKDCDVLVGYKAVYRISFAMAIFFFVFSLLMFKVKTSKDLRAAVHNGFWFFKIAALIGIMVGSFYIPGGYFSSVWFVVGMIGAALFILIQLVLLVDFAHSWNESWVNRMEEGNPRLWYAALLSFTSAFYILSIICVGLLYTYYTKPDGCTENKFFISINLILCVVASIISIHPKIQEHQPRSGLLQSSLITLYTMYLTWSAMSNEPDRSCNPNLMSFITRITAPTLAPGNSTAVVPTPTPPSKSGSLLDSDNFIGLFVFVLCLLYSSIRTSTNSQVDKLTLSGSDSVILGDTTTSGASDEEDGQPRRAVDNEKEGVQYSYSLFHLMLCLASLYIMMTLTSWYSPDAKFQSMTSKWPAVWVKISSSWVCLLLYVWTLVAPLVLTSRDFS [SERINC3] | -0.0916 | -2.7 | -4.19 | 0.0994 |
| MAAAAGDGGGEGGAGLGSAAGLGPGPGLRGQGPSAEAHEGAPDPMPAALHPEEVAARLQRMQRELSNRRKILVKNLPQDSNCQEVHDLLKDYDLKYCYVDRNKRTAFVTLLNGEQAQNAIQMFHQYSFRGKDLIVQLQPTDALLCITNVPISFTSEEFEELVRAYGNIERCFLVYSEVTGHSKGYGFVEYMKKDFAAKARLELLGRQLGASALFAQWMDVNLLASELIHSKCLCIDKLPSDYRDSEELLQIFSSVHKPVFCQLAQDEGSYVGGFAVVEYSTAEQAEEVQQAADGMTIKGSKVQVSFCAPGAPGRSTLAALIAAQRVMHSNQKGLLPEPNPVQIMKSLNNPAMLQVLLQPQLCGRAVKPAVLGTPHSLPHLMNPSISPAFLHLNKAHQSSVMGNTSNLFLQNLSHIPLAQQQLMKFENIHTNNKPGLLGEPPAVVLQTALGIGSVLPLKKELGHHHGEAHKTSSLIPTQTTITAGMGMLPFFPNQHIAGQAGPGHSNTQEKQPATVGMAEGNFSGSQPYLQSFPNLAAGSLLVGHHKQQQSQPKGTEISSGAASKNQTSLLGEPPKEIRLSKNPYLNLASVLPSVCLSSPASKTTLHKTGIASSILDAISQGSESQHALEKCIAYSPPFGDYAQVSSLRNEKRGSSYLISAPEGGSVECVDQHSQGTGAYYMETYLKKKRVY [RAVER2] | 0.172 | 1.56 | 1.81 | -0.203 |
| MAAVLESLLREEVSVAAVVRWIARSTQGSEDNAGEAAALSSLRALRKEFVPFLLNFLREQSSRVLPQGPPTPAKTPGASAALPGRPGGPPRGSRGARSQLFPPTEAQSTAAEAPLARRGGRRRGPGPARERGGRGLEEGVSGESLPGAGGRRLRGSGSPSRPSLTLSDPPNLSNLEEFPPVGSVPPGPTGTKPSRRINPTPVSEERSLSKPKTCFTSPPISCVPSSQPSALDTSPWGLGLPPGCRSLQEEREMLRKERSKQLQQSPTPTCPTPELGSPLPSRTGSLTDEPADPARVSSRQRLELVALVYSSCIAENLVPNLFLELFFVFQLLTARRMVTAKDSDPELSPAVLDSLESPLFQSIHDCVFFAVQVLECHFQVLSNLDKGTLKLLAENERLLCFSPALQGRLRAAYEGSVAKVSLVMPPSTQAVSFQPETDNRANFSSDRAFHTFKKQRDVFYEVLREWEDHHEEPGWDFEKGLGSRIRAMMGQLSAACSHSHFVRLFQKQLLQMCQSPGGAGGTVLGEAPDVLSMLGADKLGRLWRLQERLMAPQSSGGPCPPPTFPGCQGFFRDFILSASSFQFNQHLMDSLSLKIQELNGLALPQHEPNDEDGESDVDWQGERKQFAVVLLSLRLLAKFLGFVAFLPYRGPEPPPTGELQDSILALRSQVPPVLDVRTLLQRGLQARRAVLTVPWLVEFLSFADHVVPLLEYYRDIFTLLLRLHRSLVLSQESEGKMCFLNKLLLLAVLGWLFQIPTVPEDLFFLEEGPSYAFEVDTVAPEHGLDNAPVVDQQLLYTCCPYIGELRKLLASWVSGSSGRSGGFMRKITPTTTTSLGAQPSQTSQGLQAQLAQAFFHNQPPSLRRTVEFVAERIGSNCVKHIKATLVADLVRQAESLLQEQLVTQGEEGGDPAQLLEILCSQLCPHGAQALALGREFCQRKSPGAVRALLPEETPAAVLSSAENIAVGLATEKACAWLSANITALIRREVKAAVSRTLRAQGPEPAARGERRGCSRACEHHAPLPSHLISEIKDVLSLAVGPRDPDEGVSPEHLEQLLGQLGQTLRCRQFLCPPAEQHLAKCSVELASLLVADQIPILGPPAQYRLERGQARRLLHMLLSLWKEDFQGPVPLQLLLSPRNVGLLADTRPREWDLLLFLLRELVEKGLMGRMEIEACLGSLHQAQWPGDFAEELATLSNLFLAEPHLPEPQLRACELVQPNRGTVLAQS [CDAN1] | 0.0358 | 0.128 | -0.765 | 0.117 |
| MSQVMSSPLLAGGHAVSLAPCDEPRRTLHPAPSPSLPPQCSYYTTEGWGAQALMAPVPCMGPPGRLQQAPQVEAKATCFLPSPGEKALGTPEDLDSYIDFSLESLNQMILELDPTFQLLPPGTGGSQAELAQSTMSMRKKEESEALDIKYIEVTSARSRCHDGPQHCSSPSVTPPFGSLRSGGLLLSRDVPRETRSSSESLIFSGNQGRGHQRPLPPSEGLSPRPPNSPSISIPCMGSKASSPHGLGSPLVASPRLEKRLGGLAPQRGSRISVLSASPVSDVSYMFGSSQSLLHSSNSSHQSSSRSLESPANSSSSLHSLGSVSLCTRPSDFQAPRNPTLTMGQPRTPHSPPLAKEHASSCPPSITNSMVDIPIVLINGCPEPGSSPPQRTPGHQNSVQPGAASPSNPCPATRSNSQTLSDAPFTTCPEGPARDMQPTMKFVMDTSKYWFKPNITREQAIELLRKEEPGAFVIRDSSSYRGSFGLALKVQEVPASAQSRPGEDSNDLIRHFLIESSAKGVHLKGADEEPYFGSLSAFVCQHSIMALALPCKLTIPQRELGGADGASDSTDSPASCQKKSAGCHTLYLSSVSVETLTGALAVQKAISTTFERDILPTPTVVHFKVTEQGITLTDVQRKVFFRRHYPLTTLRFCGMDPEQRKWQKYCKPSWIFGFVAKSQTEPQENVCHLFAEYDMVQPASQVIGLVTALLQDAERM [TNS4] | 0.00637 | -0.0391 | 2.56 | -0.0286 |
| MPDIIWVFPPQAEAEEDCHSDTVRADDDEENESPAETDLQAQLQMFRAQWMFELAPGVSSSNLENRPCRAARGSLQKTSADTKGKQEQAKEEKARELFLKAVEEEQNGALYEAIKFYRRAMQLVPDIEFKITYTRSPDGDGVGNSYIEDNDDDSKMADLLSYFQQQLTFQESVLKLCQPELESSQIHISVLPMEVLMYIFRWVVSSDLDLRSLEQLSLVCRGFYICARDPEIWRLACLKVWGRSCIKLVPYTSWREMFLERPRVRFDGVYISKTTYIRQGEQSLDGFYRAWHQVEYYRYIRFFPDGHVMMLTTPEEPQSIVPRLRTRNTRTDAILLGHYRLSQDTDNQTKVFAVITKKKEEKPLDYKYRYFRRVPVQEADQSFHVGLQLCSSGHQRFNKLIWIHHSCHITYKSTGETAVSAFEIDKMYTPLFFARVRSYTAFSERPL [FBXO9] | -0.365 | 0.568 | 0.333 | 0.156 |
| MALFYVARYPGPDAAAAAGPEGAEAGAHGRARALLERLQSRARERQQQREPAQTEAAASTEPATRRRRRPRRRRRVNDAEPGSPEAPQGKRRKADGEDAGAESNEEAPGEPSAGSSEEAPGEPSAGSSEEAPGERSTSASAEAAPDGPALEEAAGPLVPGLVLGGFGKRKAPKVQPFLPRWLAEPNCVRRNVTEDLVPIEDIPDVHPDLQKQLRAHGISSYFPVQAAVIPALLESAACGFLVGRGGYRPSDLCVSAPTGSGKTLAFVIPVVQALLSRVVCHIRALVVLPTKELAQQVSKVFNIYTDATPLRVSLVTGQKSLAKEQESLVQKTADGYRCLADIVVATPGRLVDHIDQTPGFSLQQLRFLIIDEADRMIDSMHQSWLPRVVAAAFQSEDPADPCALLQRRQAQAVTAASTCCPQMPLQKLLFSATLTQNPEKLQQLGLHQPRLFSTGLAHRGLEDTDGDGDSGKYAFPVGLTHHYVPCSLSSKPLVVLHLVLEMGFSRVLCFTNSRENSHRLFLLVQAFGGVDVAEFSSRYGPGQRRMILKQFEQGKIQLLISTDATARGIDVQGVELVVNYDAPQYLRTYVHRVGRTARAGKTGQAFTLLLKVQERRFLRMLTEAGAPELQRHELSSKLLQPLVPRYEEALSQLEESVKEERKQRAA [DDX51] | -1.48 | -0.0942 | 1.3 | 1.23 |
